{"source": "the RNAGym collection of RNA variant scans (doi:10.1073/pnas.2313332121)", "parents": {"B1": {"name": "TPR t1 (parent)", "chain": "GACCAAUCUGCCCUCAGAGCUCGAGAACAUCUUCGGAUGCAGAGGAGGCAGGCUUCGGUGGCGCGAUAGCGCCAACGUCCUCAACCUCCAAUGCAUCCCACCACAUGAUGAUGCCUGAAGAGCCUUGGUUUUUUG"}}}
{"variants_of": "B1", "assay": "polymerase ribozyme fitness, log enrichment relative to wild type (log ratio); higher = more active; in vitro selection for triplet polymerase activity", "how_it_was_run": "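PCR was used to build mutant libraries for each subunit of a heterodimeric triplet polymerase ribozyme, which were then transcribed. A single in vitro selection round, in triplicate, used a frozen incubation at −7 °C and recovered extended constructs by gel excision, streptavidin beads and RT-PCR. Fitness is the logarithm of genotype enrichment relative to wild-type enrichment, averaged over replicates with inverse-variance weights. The logarithm is base 2, and after Illumina sequencing only genotypes with ≥10 input reads and ≥1 read per output were kept.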"}
{"variant": "GACCAAUCUGCCCUCAGAGCUCGAGAGCAUCUUCGGAUGCAGAGGAGGCAGGCUUCGGUUGCGCGAUAGCGCCAACGUCCUCAACCUCCAAUGCAUCCCACCACAUGAUGAUGCCUGAAGAGCCUUGGUUUUUUG", "polymerase ribozyme fitness (log ratio)": -1.6}
{"variant": "GACCAAUCUGCCCUCAGAGCUCGAGAGCAUCUUCGGAUGCAGAGGAGGCAGGCUUCGGUCGCGCGAUAGCGCCAACGUCCUCAACCUCCAAUGCAUCCCACCACAUGAUGAUGCCUGAAGAGCCUUGGUUUUUUG", "polymerase ribozyme fitness (log ratio)": -2.15}
{"variant": "GACCAAUCUGCCCUCAGAGCUCGAGAGCAUCUUCGGAUGCAGAGGAGGCAGGCUUCGGUGGCGCGAUAGCGCCAACGUCCUCAACCUCCAAUGCAUCCCACCACAUGAUGAUGCCUGAAGAGCCUUGCUUUUUUG", "polymerase ribozyme fitness (log ratio)": -4.95}
{"variant": "GACCAAUCUGCCCUCAGAGCUCGAGAGCAUCUUCGGAUGCAGAGGAGGCAGGCUUCGGCGGCGCGAUGGCGCCAACGUCCUCAACCUCCAAUGCAUCCUACCACAUGAUGAAGCCUGAAGAGCCUUGGUUUUUUG", "polymerase ribozyme fitness (log ratio)": -5.37}
{"variant": "GACCAAUCUGCCCUCAGAGCUCGAGAGCAUCUUCGGAUGCAGAGGAGGCAGGCUUCGGUGGCGCGAUAGCGUCAACGUCCUCAACCUCCAAUGCAUCCCAACAAAUGAUGAUGCCUGAAGAGCCUUGGUUUUUUG", "polymerase ribozyme fitness (log ratio)": -4.48}
{"variant": "GACCAAUCUGCCCUCAGAGCUCGAGAUCAUCUUCGGAUGCAGAGGAGGCAGGCUUCGGUGGCGCGCUAGCGCCAACGUCCUCUACCUCCAAUGCAUCCCACCACAUGAUGAUGCCUGAAGAGCCUUGGUUUUUUG", "polymerase ribozyme fitness (log ratio)": -4.44}
{"variant": "GACCAAUCUGCCCUCAGAGCUCGAGAGCAUCUUCGGAUGCAGAGGAGGCAGGCUUCGGUGGCGCGAUAGCAUCAACGUCCUCAACCUCCAAUGCGUCCCACCACAUGAUGAUGCCUGAAGAGCCUUGGUUUUUUG", "polymerase ribozyme fitness (log ratio)": -4}
{"variant": "GACCAAUCUGCCCUCAGAGCUCGAGAUGAUCUUCGGAUGCAGAGGAGGCAGGCUUCGGUGGCUCGAUAGCGCCAACGUCCUCAACCUCCAAUGCAUCCCACCACAUGAUCAUGCCUGAAGAGCCUUGGUUUUUUG", "polymerase ribozyme fitness (log ratio)": -5.36}
{"variant": "GACCAAUCUGCCCUCAGAGCUCGAGAGCAUCUUCGGAUGCAGAGGAAGCAGGGUUCGGUGGCGCGAUAGCGCCAACGUCCUCAACCUCCAAUGCAUCCCACCACAUGAUGAUGCCUGAAGAGCCUUGGUUUUUUG", "polymerase ribozyme fitness (log ratio)": -2.77}
{"variant": "GACCAAUCUGCCCUCAGAGCUCGAGAUCAUCUUCGGAUGCAGAGGAGGCAGGCUUCGGUGGUGCGAUAGCGCCAACGUCCUCAACCUCCAAUGCAUCCCACCACAUGAUGAUGCCUGAAGAGCCUUGGUUUUUUG", "polymerase ribozyme fitness (log ratio)": -3.58}
{"variant": "GACCAAUCUGCCCUCAGAGCUCGAGAUCAUCUUCGGAUGCUGAGGAGGUAGGCUUCGGUGGCGCGAUAGCGUCAACGUCCUCAACCUCCAAUGCAUCCCACCACAUGAUGAUGCCUGAAGAGCCUUGGUUUUUUG", "polymerase ribozyme fitness (log ratio)": -5.06}
{"variant": "GACCAAUCUGCCCUCAGAGCUCGAGAGCAUCUUCGGAUGCAGAGUCGGUAGGCUUCGGUGGCGCGAUAGCGCCAACGUCCUCAACCUCCAAUGCAUCCCACCACAUGAUGAUGCCUGAAGAGCAUUGAUUUUUUG", "polymerase ribozyme fitness (log ratio)": -5.34}
{"variant": "GACCAAUCUGCCCUCAGAGCUCGAGAUCAUCUUCGGAUGCAGAGGAGGCAGGCUUCGGUGGCGCGAUAGCGCCAACGUCCUCAGCCUCCAAUGCAUCCCACCACAUGAUGAUGCCUGAAGAGCCUUGGUUUUUUG", "polymerase ribozyme fitness (log ratio)": -4.18}
{"variant": "GACCAAUCUGCCCUCAGAGCUCGAGAUCAUCUUCGGAUGCAGAGGAGGCAGGCUUCGGUGGCGCGAUAGCGCCAACGUCCUCAUCCUCCAAUGCAUCCCACCACAUGAUGAUGCCUGAAGAGCCUUGGUUUUUUG", "polymerase ribozyme fitness (log ratio)": -3.79}
{"variant": "GACCAAUCUGCCCUCAGAGCUCGAGAGCAUCUUCGGAUGCAGAGGAGGCAGGCUUCGGUGGCGCGAUACCGCCAACGUCCUCAACCUCCCAUGCAUCCCACCACAUGAUGAUGCCUGAAGAGCCUUGGUUUUUUG", "polymerase ribozyme fitness (log ratio)": -4.21}
{"variant": "GACCAAUCUGCCCUCAGAGCUCGAGAUUAUCUUCGGAUGCAGAGGAGGCAGGCUUCGGUGGCGCGAUAGCGCCAACGUCCUCAACCUCCAAUGCAUCCCACCACAUGAUGAUGCCUGAAGAGCCUUGGUUUUUUG", "polymerase ribozyme fitness (log ratio)": -2.59}
{"variant": "GACCAAUCUGCCCUCAGAGCUCGAGAGCAUCUUCGGAUGCAGAGGAGUCAGGCUUCGGUGGCGCGAUAGCGCCAACGUCCUCAACCUCCAAUGCAUCCCACCACAUGAUGAUGCCUGAAGAGCCUUGGUUUUUUG", "polymerase ribozyme fitness (log ratio)": -2.47}
{"variant": "GACCAAUCUGCCCUCAGAGCUCGAGAGCAUCUUCGGAUGCAGAGGAGGCAGGCUUCGGUGGCGCGAUAGCGCCAACGCCCUCAACCUCCAAUGCAUCCCACCACAUGAUGAUGCCUGAAGAGCCUUGGUUUUUUG", "polymerase ribozyme fitness (log ratio)": -2.35}
{"variant": "GACCAAUCUGCCCUCAGAGCUCGAGAUCAUCUUCGGAUGCAGUGGAGACAGGCUUCGGUGGCGCGAUAGCGCCAACGUCCUCAACCUACAAUGCAUCCCACCACAUGAUGAUGCCUGAAGAGACUUGGUUUUUUG", "polymerase ribozyme fitness (log ratio)": -4.03}
{"variant": "GACCAAUCUGCCCUCAGAGCUCGAGAGCAUCUUCGGAUGCAGAGGAGGCAGGCUUCGGUGGCGCGAUAGCGCCAACGUCCUCAACCUCCAAUGCAUCCCACCACAUGAUGAUGCAUGAAGAGCCUUGGUUUUUUG", "polymerase ribozyme fitness (log ratio)": -3.25}
{"variant": "GACCAAUCUGCCCUCAGAGCUCGAGAGCAUCUUCGGAUGCAGAGGAGGCAGGCUUCGGUGGCGCGAUAGUGCCAACGUCAUCAACCUCCAAUGCAUCCCACCACAUGAUGAUGCCUGAAGAGCCUUGGUUUUUUG", "polymerase ribozyme fitness (log ratio)": -4.47}
{"variant": "GACCAAUCUGCCCUCAGAGCUCGAGAGCAUCUUCGGAUGCAGAGGAGGCAGGCUUCGGUGGCGCGAUAGCGCCAACGUCCUCAACCUCCAAUGCAUCCCACCACAUGAUGAUGCCUGAAGAGCCGUGGUUUUUUG", "polymerase ribozyme fitness (log ratio)": -2.34}
{"variant": "GACCAAUCUGCCCUCAGAGCUCGAGAUCAUCUUCGGAUGCAGAGGAGGCAGGAUUCGGUGGCGCGAUAGCGUCAACGUCCUCAACCUCCAAUGCAUCCCACCACAUGAUGAUGCCUGAAGAGCCUUGGUUUUUUG", "polymerase ribozyme fitness (log ratio)": -3.4}
{"variant": "GACCAAUCUGCCCUCAGAGCUCGAGAGCAUCUUCGGAUGCAGAGGAGGCAGGCUUCGGUGGCGCGAUAGCGCCAACGUCCUCAACCUCCAAUGCAUCCCACCACAUGAUGAUGCCUGAAGAGCCUUGGCUUUUUG", "polymerase ribozyme fitness (log ratio)": -3.02}
{"variant": "GACCAAUCUGCCCUCAGAGCUCGAGAUCAUCUUCGGAUGCAGAGGAGGCAGGCUUGGGUGGCGCGAUAGCGCCAACGUCCUCAACCUCCAAUGCAUCCCACCACAUGAUGAUGCCUGAAGAGCCUUGGUUUUUUG", "polymerase ribozyme fitness (log ratio)": -4.07}
{"variant": "GACCAAUCUGCCCUCAGAGCUCGAGAUCAUCUUCGGAUGCAGAGGAGGCAGGCUUCGGUGGAGCGAUAGCGCCAACGUCCUCAACCUCCAAUGCAUCCCAUCACAUGAUGAUGCCUGAUGAGCCUUGGUUUUUUG", "polymerase ribozyme fitness (log ratio)": -5.17}
{"variant": "GACCAAUCUGCCCUCAGAGCUCGAGAUCCUCUUCCGAUGCAGAGGAGGCAGGCUUCGGUGGCGCGAUUGCGCCAACGUCCUCAACCUCCAAUGCAUCCCACCACAUGAGGAUGCCUGAGGAGCCUUAGUUUUUUG", "polymerase ribozyme fitness (log ratio)": -6.64}
{"variant": "GACCAAUCUGCCCUCAGAGCUCGAGAUCAUCUUCGGCUGCAGAGGAGGCAGGCUUCGGUGGCGCGAUAGCGCCAACGUCCUCAACCUCCAGUGUAUCCCACCACACGAUGAUGCCUGAAGAGCCUUGGUUUUUUG", "polymerase ribozyme fitness (log ratio)": -5.4}
{"variant": "GACCAAUCUGCCCUCAGAGCUCGAGAGCAUCUUCGGAUGCAGAGGAGGCAGGCUUCGGUGGCGCGAUAACGCCAACGUCCUCAACCUCCAAUGCAUCCCACCACAUGAUGAUGCCUGAAGAGCCUUGGUUUUUUG", "polymerase ribozyme fitness (log ratio)": -2.88}
{"variant": "GACCAAUCUGCCCUCAGAGCUCGAGAGCAUCUUCGGAUGCAGAGGAGGCAGGCUUCGGUGGCGCGAUAGCGCCAACGUCCUCAACCUCCAAUGCAUCACACCACAUGAUGAUGCCUGAAGAGCCUUGGUUUUUUG", "polymerase ribozyme fitness (log ratio)": -7.76}
{"variant": "GACCAAUCUGCCCUCAGAGCUCGAGAGCAUCUUCGGAUGCAGAGGAGGCAGGCUUCGGUGGCGCGAUAGCGCCAAUGUCCUCAACCUCUAAUACAUCCCACCACAUGAUGAUGCCUGAAGAGCCUUGGUUUUUUG", "polymerase ribozyme fitness (log ratio)": -3.34}
{"variant": "GACCAAUCUGCCCUCAGAGCUCGAGAGCAUCUUCGGAUGCAGAGGAGGCAGGCUUCGGUGGCGCGAUAGCGCCAACGUCCUCAACCUCCAAUGCAUCCCACCACAGGAUGAGGCCUGAAGAGCCUUGGUUUUUUG", "polymerase ribozyme fitness (log ratio)": -1.51}
{"variant": "GACCAAUCUGCCCUCAGAGCUCGAGAGCAUCUUCGGAUGCAGAGGAGGCAGACUUCGGUGGCGCGAUAGCGCCAACGUUCUCAACCUCCAAUGCAUCCCACCACAUGAUGAUGCCUGAAGAGCCUUGGUUUUUUG", "polymerase ribozyme fitness (log ratio)": -2.15}
{"variant": "GACCAAUCUGCCCUCAGAGCUCGAGAGCAUCUUCGGAUGCAGAGGAGGCAGGCCUCGGUGGCGCGAUAGCGCCAACGUCUUCAUCCUCCAAUGCAUCCCACCACAUGAUGAUGCCUGAAGAGCCUUGGUUUUUUG", "polymerase ribozyme fitness (log ratio)": -2.61}
{"variant": "GACCAAUCUGCCCUCAGAGCUCGAGAGCAUCUUCGGAUGCAGAGGAGGCAGGCUUCGGUGGCGCGAUAGCGCCAACGUCCUCAACCUCCAAUGCAUCCCACCAAAUGAUGAUGCCUGAAGAGCCUUGGUUUUUUG", "polymerase ribozyme fitness (log ratio)": -2.31}
{"variant": "GACCAAUCUGCCCUCAGAGCUCGAGAUCAUCUUCGGAUGCAGAGGAGGCAGGCUUCGGUGGCGCGAUAGAGCCAACGUCCUCAACCUCCAAUGCAUCCCACCACAUGAUGAUGCGUGAAGAGCCUUGGUGUUUUG", "polymerase ribozyme fitness (log ratio)": -6.2}
{"variant": "GACCAAUCUGCCCUCAGAGCUCGAGAGCAUCUUCGGAUGCAGAGGAGGCAGGCUUCGGUGGCGCGAUACCGCCAACGUCCUCAACCUCCAAUGCAUCCCACUACAUGAUGAUGCCUGAAGAGCCUUGGUUUUUUG", "polymerase ribozyme fitness (log ratio)": -4.65}
{"variant": "GACCAAUCUGCCCUCAGAGCUCGAGAUGAUCUUCGGAUGCAGAGGAGGCAGGCUUCGGUGGCGCGAUAGCGCCAACGUCCUCAACCUCCAAUGCAUCCCACCACAUGAUCAUGCCUGAAGAGCCUUGGUUUUUUG", "polymerase ribozyme fitness (log ratio)": -4}
{"variant": "GACCAAUCUGCCCUCAGAGCUCGAGAGCAUCUUCGUAUGCACAGGAGGCAGGCUUCGGUGGCGCGAUAGCGCCAACGUCCUCAACCUCCAAUGCAUCCCACCACAUGAUGAUGCCUGAAAAGCCUUGGUUUUUUG", "polymerase ribozyme fitness (log ratio)": -5.26}
{"variant": "GACCAAUCUGCCCUCAGAGCUCGAGAUCAUCUUCGGAUGCAGAGGAGGCCGGCUUCGGUGGCGCGAUAGCGCCAACGUCCUCAACCUCCAAUGCAUCCCACCACAUGAUGAUGCCUGAAGAGCCUUGGUUUUUUG", "polymerase ribozyme fitness (log ratio)": -3.87}
{"variant": "GACCAAUCUGCCCUCAGAGCUCGAGAUCAUCUUCGGAUGCAGAGGGGGCAGGCUUCGGUGGCGCGAUAGCGCCAACGUCCUCAACCUCCAAUGCAUCCCACCACAUGAUGAUGCCUGAAGAGCCUUGGUUUUUUG", "polymerase ribozyme fitness (log ratio)": -2.59}
{"variant": "GACCAAUCUGCCCUCAGAGCUCGAGAUCAUCUUCGGAUGCAGAGGCGGCAGGCUUCGGUGGCGCGAUAGCGCCAACGUCCUCAACCUCCAAUGCAUCCCACCACAUGAUGAUGCCCGAAGAGCCUUGGUUUUUUG", "polymerase ribozyme fitness (log ratio)": -6.31}
